# Tests used:
# [1] = target: MspA-((Del-F80/S81/G112/V13)D56N/E59R/G75S/G77S/L88N/D90N/D91N/D118R/Q126R/D134R/E139K)8
# [2] = target: MspA-((Del-G75N76/A117/D118)D56N/E59R/G77S/L88N/D90N/D91N/Q126R/D134R/E139K)8
# [3] = target: MspA-((Del-L74/G75/D118/L119)D56L/E59L/L88N/D90N/D91N/Q126R/D134R/E139K)8
# [4] = target: MspA-((Del-L74/G75/D118/L119)D56N/E57D/E59R/L88N/D90N/D91N/Q126R/D134R/E139K)8
# [5] = target: MspA-((Del-L74/G75/D118/L119)D56N/E57N/E59N/L88N/D90N/D91N/Q126R/D134R/E139K)8
# [6] = target: MspA-((Del-L74/G75/D118/L119)D56N/E59F/L88N/D90N/D91N/Q126R/D134R/E139K)8
# [7] = target: MspA-((Del-L74/G75/D118/L119)D56N/E59Q/L88N/D90N/D91N/Q126R/D134R/E139K)8
# [8] = target: MspA-((Del-L74/G75/D118/L119)D56N/E59Y/L88N/D90N/D91N/Q126R/D134R/E139K)8
# [9] = target: MspA-((Del-L74/G75/D118/L119)D56Y/E59R/L88N/D90N/D91N/Q126R/D134R/E139K)8
# [10] = target: MspA-((Del-L74/G75/D118/L119)E59N/L88N/D90N/D91N/Q126R/D134R/E139K)8
# [11] = target: MspA-((Del-N79/F80N113N114)D56N/E59R/G75S/G77S/L88N/D90N/D91N/D118R/Q126R/D134R/E139K)8
# [12] = target: MspA-(D56N/E59R/G75S/G77S/L88N/D90N/D91N/D118R/Q126R/D134R/E139K)8
protein,measurement,setting,value
T4 Dda-E94C/C109A/C136A/A360C (SEQ ID NO: 24 with mutations E94C/C109A/C136A/A360C) (protein) MTFDDLTEGQKNAFNIVMKAIKEKKHHVTINGPAGTGKTTLTKFIIEALISTGETGIILAAPTHAAKKILSKLSGKEASTIHSILKINPVTYECNVLFEQKEVPDLAKARVLICDEVSMYDRKLFKILLSTIPPWATIIGIGDNKQIRPVDPGENTAYISPFFTHKDFYQCELTEVKRSNAPIIDVATDVRNGKWIYDKVVDGHGVRGFTGDTALRDFMVNYFSIVKSLDDLFENRVMAFTNKSVDKLNSIIRKKIFETDKDFIVGEIIVMQEPLFKTYKIDGKPVSEIIFNNGQLVRIIEAEYTSTFVKARGVPGEYLIRHWDLTVETYGDDEYYREKIKIISSDEELYKFNLFLGKTCETYKNWNKGGKAPWSDFWDAKSQFSKVKALPASTFHKAQGMSVDRAFIYTPCIHYADVELAQQLLYVGVTRGRYDVFYV,Average Signal to Noise (S2N),[1],13
same,Mean Current Range,[1],17.1 pA
same,Mean Noise of the Signal,[1],1.32
same,Median Current Range,[1],17.1 pA
same,Median Noise of the Signal,[1],1.22
same,Standard Deviation of the Current Range,[1],2.11 pA
same,Standard Deviation of the Noise of the Signal,[1],0.32
same,Average Signal to Noise (S2N),[2],12.5
same,Mean Current Range,[2],15.8 pA
same,Mean Noise of the Signal,[2],1.27
same,Median Current Range,[2],15.8 pA
same,Median Noise of the Signal,[2],1.21
same,Standard Deviation of the Current Range,[2],1.69 pA
same,Standard Deviation of the Noise of the Signal,[2],0.24
same,slips forward per kilobase,[3],less than 5 slips forward per kilobase
same,Average Signal to Noise (S2N),[4],12.9
same,Mean Current Range,[4],15.4 pA
same,Mean Noise of the Signal,[4],1.19
same,Median Current Range,[4],15.4 pA
same,Median Noise of the Signal,[4],1.16
same,Median S2N,[4],11.9
same,Percentage of complement slipping forwards,[4],0.7%
same,Standard Deviation of S2N,[4],0.33
same,Standard Deviation of the Current Range,[4],1.77 pA
same,Standard Deviation of the Noise of the Signal,[4],0.19
same,Average Signal to Noise (S2N),[5],13
same,Mean Current Range,[5],19 pA
same,Mean Noise of the Signal,[5],1.46
same,Median Current Range,[5],19.2 pA
same,Median Noise of the Signal,[5],1.35
same,Standard Deviation of the Current Range,[5],2.07 pA
same,Standard Deviation of the Noise of the Signal,[5],0.36
same,Average Signal to Noise (S2N),[6],12.8
same,Mean Current Range,[6],15.8 pA
same,Mean Noise of the Signal,[6],1.24
same,Median Current Range,[6],15.7 pA
same,Median Noise of the Signal,[6],1.17
same,Median S2N,[6],12.8
same,Percentage of complement slipping forwards,[6],0.25%
same,Standard Deviation of S2N,[6],0.12
same,Standard Deviation of the Current Range,[6],1.86 pA
same,Standard Deviation of the Noise of the Signal,[6],0.27
same,Average Signal to Noise (S2N),[7],12.8
same,Mean Current Range,[7],15.6 pA
same,Mean Noise of the Signal,[7],1.22
same,Median Current Range,[7],15.5 pA
same,Median Noise of the Signal,[7],1.16
same,Median S2N,[7],13.3
same,Percentage of complement slipping forwards,[7],0.55%
same,Standard Deviation of S2N,[7],0.86
same,Standard Deviation of the Current Range,[7],1.72 pA
same,Standard Deviation of the Noise of the Signal,[7],0.25
same,Average Signal to Noise (S2N),[8],10.7
same,Mean Current Range,[8],15.9 pA
same,Mean Noise of the Signal,[8],1.48
same,Median Current Range,[8],15.9 pA
same,Median Noise of the Signal,[8],1.43
same,Median S2N,[8],10.4
same,Percentage of complement slipping forwards,[8],0.3%
same,Standard Deviation of S2N,[8],0.66
same,Standard Deviation of the Current Range,[8],1.92 pA
same,Standard Deviation of the Noise of the Signal,[8],0.24
same,slips forward per kilobase,[8],less than 5 slips forward per kilobase
same,Average Signal to Noise (S2N),[9],12.9
same,Mean Current Range,[9],15.9 pA
same,Mean Noise of the Signal,[9],1.24
same,Median Current Range,[9],15.9 pA
same,Median Noise of the Signal,[9],1.19
same,Median S2N,[9],13.3
same,Percentage of complement slipping forwards,[9],0.6%
same,Standard Deviation of S2N,[9],1.12
same,Standard Deviation of the Current Range,[9],1.83 pA
same,Standard Deviation of the Noise of the Signal,[9],0.22
same,Average Signal to Noise (S2N),[10],13.3
same,Mean Current Range,[10],14.7 pA
same,Mean Noise of the Signal,[10],1.11
same,Median Current Range,[10],14.7 pA
same,Median Noise of the Signal,[10],1.08
same,Standard Deviation of the Current Range,[10],2.36 pA
same,Standard Deviation of the Noise of the Signal,[10],0.19
same,Average Signal to Noise (S2N),[11],13.1
same,Mean Current Range,[11],15.8 pA
same,Mean Noise of the Signal,[11],1.21
same,Median Current Range,[11],15.8 pA
same,Median Noise of the Signal,[11],1.13
same,Standard Deviation of the Current Range,[11],1.9 pA
same,Standard Deviation of the Noise of the Signal,[11],0.28
same,Average Signal to Noise (S2N),[12],11.9
same,Mean Current Range,[12],15.6 pA
same,Mean Noise of the Signal,[12],1.31
same,Median Current Range,[12],15.6 pA
same,Median Noise of the Signal,[12],1.24
same,Standard Deviation of the Current Range,[12],1.76
same,Standard Deviation of the Noise of the Signal,[12],0.26

# Source: patent publication US20240060126
